Experimental data as given in patent US6538103B1, “Lysine binding fragments of angiostatin” (Bristol--Myers Squibb Company, priority 1998, dated 2003).

How the values were obtained:
[1] = system: Bovine capillary endothelial (BCE) cells; experiment: Endothelial cell migration assay (Boyden chamber, bFGF-stimulated); assay type: cell-based; settings: bFGF 10 ng/ml, 4 hours migration; read-out: IC50 of inhibition of bFGF-induced BCE cell migration
Procedure: Bovine capillary endothelial (BCE) cells were harvested from bovine adrenal glands as previously described (33). BCE cells were maintained in DMEM in the presence of 10% bovine calf serum, 1% antibiotics, and 3 ng/ml of bFGF (PeproTech, Rockhill, N.J.). To evaluate endothelial cell migration, a Boyden Chamber-based assay was performed. First, the polycarbonate membranes with […] (Neuro Probe Inc., Cabin John, Md.) were coated with […] of collagen type I following manufacturer's instructions (Becton Dickinson, Bedford, Mass.). […] Each sample was tested in quadruplicate and a representative field in each well was counted at 10 x magnification to determine the number of migrated cells.
Fifty micrograms of the recombinant angiostatin in […] of serum-free DMEM was reduced by incubating with […] of 0.5 M dithiothreitol for 15 minutes at the room temperature. […] The homogeneity of the reduced and alkylated angiostatin was analyzed by SDS-PAGE before being examined for its inhibition on BCE cell migration. The endotoxin concentrations of both native and reduced/alkylated angiostatin were evaluated according to manufacturer's instructions (Associates of Cape Cod, Woods Hole, Mass.). […]

[2] = system: endothelial cell proliferation; settings: previously described / reported; cited from earlier work

Molecule | IC50 [1] | effect on endothelial cell proliferation (in words) [2]
Angiostatin | ~50 nM | –
K4: recombinant plasminogen kringle region 4, expressed in Pichia pastoris (protein, human, recombinant plasminogen kringle region 4, expressed in Pichia pastoris) VQDCYHGDGQSYRGTSSTTTTGKKCQSWSSMTPHRHQKTPENYPNAGLTMNYCRNPDADKGPWCFTTDPSVRWEYCNLKKCSGT | 500 nM | negligible effect on endothelial cell proliferation
